This is an account of results in patent US20040191811A1, “Methods for measuring levels of uridine-diphosphate-N-acetylglucosamine and activity of inhibitors thereof” (priority 2002, published 2004).

Common to all, as to type: biochemical, human
What all share (settings): other: extracts from transfected SF9 insect cells, 60 minutes at 37° C.

Substrate in data set [1]: O=C(CO)[C@@H](O)[C@H](O)[C@H](O)COP(=O)(O)O
Put plainly: Substrate Km determination for GFAT-beta (Lineweaver-Burk plot). The method, then: (§1) FIG. 3 illustrates the effect of varying concentrations of the substrates glutamine and fructose 6-phosphate on the enzyme activity of GFAT-alpha and GFAT-beta. FIG. 3A is a graph illustrating incubation with 10 μl glutamine 200 mM+10 μl fructose 6-phosphate 3.125, 6.25, 12.5, 25, 50, 100, and 200 mM. FIG. 3B is a graph illustrating incubation with 10 μl fructose 6-phosphate 200 mM+10 μl glutamine 3.125, 6.25, 12.5, 25, 50, 100, and 200 mM. 10 μl of GFAT-alpha and 5 μl of GFAT-beta extracts from transfected SF9 insect cells are incubated with 1) 10 μl glutamine 200 mM+10 μl fructose 6-phosphate 3.125, 6.25, 12.5, 25, 50, 100, and 200 mM, and 2) 10 μl fructose 6-phosphate 200 mM+10 μl glutamine 3.125, 6.25, 12.5, 25, 50, 100, and 200 mM in an incubation media containing 10 μl PBS 10×, 10 μl EDTA 50 mM, 10 μl DTT 10 mM, and water to 100 μl. The plate is sealed with a Costar plate sealer and incubated for 60 minutes at 37° C. by floating on a water bath. Additional incubation mixture is kept on ice to add to standard and control samples. […] After a 20-minute incubation at 37° C., the OD is determined for each well at 585 nm.
(§2) FIG. 3C is a table illustrating the Km values of the substrates for the GFAT-alpha and GFAT-beta enzymes calculated from the data generated in FIGS. 3A and 3B. […]

Substrate in data set [2]: NC(=O)CC[C@H](N)C(=O)O
The data set is described as above. The method, then:
as §1, §2

Substrate in data set [3]: O=C(CO)[C@@H](O)[C@H](O)[C@H](O)COP(=O)(O)O
Description: Substrate Km determination for GFAT-alpha (Lineweaver-Burk plot). The method, then: as §1, §2

Substrate in data set [4]: NC(=O)CC[C@H](N)C(=O)O
The data set is described as above. How it is done: as §1, §2

For orientation: Km means the substrate concentration at which the rate is half of its maximum.

B1: GFAT-beta (Homo sapiens) (protein)
chain: MCGIFAYMNYRVPRTRKEIFETLIKGLQRLEYRGYDSAGVAIDGNNHEVKERHIQLVKKRGKVKALDEELYKQDSMDLKVEFETHFGIAHTRWATHGVPSAVNSHPQRSDKGNEFVVIHNGIITNYKDLRKFLESKGYEFESETDTETIAKLIKYVFDNRETEDITFSTLVERVIQQLEGAFALVFKSVHYPGEAVATRRGSPLLIGVRSKYKLSTEQIPILYRTCTLENVKNICKTRMKRLDSSACLHAVGDKAVEFFFASDASAIIEHTNRVIFLEDDDIAAVADGKLSIHRVKRSASDDPSRAIQTLQMELQQIMKGNFSAFMQKEIFEQPESVFNTMRGRVNFETNTVLLGGLKDHLKEIRRCRRLIVIGCGTSYHAAVATRQVLEELTELPVMVELASDFLDRNTPVFRDDVCFFISQSGETADTLLALRYCKDRGALTVGVTNTVGSSISRETDCGVHINAGPEIGVASTKAYTSQFISLVMFGLMMSEDRISLQNRRQEIIRGLRSLPELIKEVLSLEEKIHDLALELYTQRSLLVMGRGYNYATCLEGALKIKEITYMHSEGILAGELKHGPLALIDKQMPVIMVIMKDPCFAKCQNALQQVTARQGRPIILCSKDDTESSKFAYKTIELPHTVDCLQGILSVIPLQLLSFHLAVLRGYDVDFPRNLAKSVTVE
notes: made in house; host or cells: SF9 insect cells (sonicated, centrifuged cell extract, not purified)
On to B1, for which the Km in data set [1] is recorded as 6.8 mM; in data set [2] it was 1.99 mM.

B2: GFAT-alpha (Homo sapiens) (protein)
chain: MCGIFAYLNYHVPRTRREILETLIKGLQRLEYRGYDSAGVGFDGGNDKDWEANACKIQLIKKKGKVKALDEEVHKQQDMDLDIEFDVHLGIAHTRWATHGEPSPVNSHPQRSDKNNEFIVIHNGIITNYKDLKKFLESKGYDFESETDTETIAKLVKYMYDNRESQDTSFTTLVERVIQQLEGAFALVFKSVHFPGQAVGTRRGSPLLIGVRSEHKLSTDHIPILYRTGKDKKGSCNLSRVDSTTCLFPVEEKAVEYYFASDASAVIEHTNRVIFLEDDDVAAVVDGRLSIHRIKRTAGDHPGRAVQTLQMELQQIMKGNFSSFMQKEIFEQPESVVNTMRGRVNFDDYTVNLGGLKDHIKEIQRCRRLILIACGTSYHAGVATRQVLEELTELPVMVELASDFLDRNTPVFRDDVCFFLSQSGETADTLMGLRYCKERGALTVGITNTVGSSISRETDCGVHINAGPEIGVASTKAYTSQFVSLVMFALMMCDDRISMQERRKEIMLGLKRLPDLIKEVLSMDDEIQKLATELYHQKSVLIMGRGYHYATCLEGALKIKEITYMHSEGILAGELKHGPLALVDKLMPVIMIIMRDHTYAKCQNALQQVVARQGRPVVICDKEDTETIKNTKRTIKVPHSVDCLQGILSVIPLQLLAFHLAVLRGYDVDFPRNLAKSVTVE
notes: as for B1
Take B2: the results for the Km in data set [3] and in data set [4] were 1.85 mM and 1.49 mM, respectively.
